This data set can be described thus: soluble on expression in E. coli; label from the status in PepcDB or PDB records.
As to “MSLVKKGAALLMVATMALSSAACSNSKTEGKPEVQAKVAPVEKNGDKTVIRFWHAMGGKTQGVLDGLVADYNKSQNKYEIKAEFQGTYEESLTKFRTMSATKEAPALVQSSEITTKYMIDSKKITPIDSWIKKDKYDTSKLEKAITNYYSVDGKMYSMPFNSSTPVLIYNKDAFAKAGLDPEKAPKTYAELQEAAKKLTIKEGGNVKQYGFSMLNYGWFFEELLATQGALYVDNENGRKDAAKKAVFNGKEGQKVFGMLDDLNKAGALGKYGASWDDIRAAFQSGQVAMYLDSSAGVRDLIDASKFNVGVSYIPYPEDSKQNGVVIGGASLWMTNMVSEETQQGAWDFMKYLTKPDVQAKWHTATGYFSINPDAYNEPLVKEQYEKYPQLKVTVDQLQATKQSPATQGALISVFPESRDAVVKALEAMYDGKNSKEALDEAAKATDRAISISARTSQK”, the “soluble on expression in E. coli” value is “not soluble”.
With “MSLVLNFVGTGTLTRFFLECLKDRYEIGYILSRSIDRARNLAEVYGGKAATLEKHPELNGVVFVIVPDRYIKTVANHLNLGDAVLVHCSGFLSSEIFKKSGRASIHPNFSFSSLEKALEMKDQIVFGLEGDERGLPIVKKIAEEISGKYFVIPSEKKKAYHLAAVIASNFPVALAYLSKRIYTLLGLDEPELLIHTLMKGVADNIKKMRVECSLTGPVKRGDWQVVEEERREYEKIFGNTVLYDEIVKLLREVAESERREAQEDEREGGSHHHHHH”, the “soluble on expression in E. coli” value was “soluble”.
On to “MSLVLSAGRLNKNSLGIAVLLCTGLLLAGCSSNSGSGTYSGSVYTVKRGDTLYRISRATGTSVKELARLNGISPPYTIEVGQRIKVRGSAKSSTSTRKTSNKTATKTAAVRPSSSVPKSSWPPVGQRCWVWPANGKVILPYSTAEGGNKGIDIAGARGTPVYAAGAGKVVYVGNQLRGYGNLIMIKHNEDYITAYAHNDTMLVNNGQSVKAGQKIATMGSTDAASVRLHFQIRYRATAIDPLRYLPPQGSKPKCEGHHHHHH”, for which the “soluble on expression in E. coli” value was “not soluble”.
The value for “MSLVVEHNPFAKRYRKGMKRIALVYPNRYVGGITNLGLQYIYARINESDAICERFYADVFDGLRSIESATPLSEFDVALFSLQYETDYFKAVEILKRSGFKGLKIAGGPCVMENPQPLMDYFHAFFIGEVEGYVEELIHAKNAEELSGIPGVFTGREEKVKRVYAKLDRHIEKEIIGEGAYGRCFLLEIGRGCVRRCRFCIVRQIYFPPRWRKKEMLPEIGEEKVAIIAPSPSDHPQFKEILQHYVEQGKEVSPSSVRADTLDEELADLLKKAGVKTLTIAPETASDKLQEVINKGIGDEEVMRAAELASTRFEKVKLYYMVGLPGESFEDVKAILEQALRVKKLVGKVEISVNPLVPKPHTPLQWMGFGGEEELREGISHLKKKLEYLRREARRAGIGADVSGFKEFAIQTILSRGDREVAEMLEGASYRKFEKYLKPINPDSPLPWDFIDHGYRKSTLLKEYDKIKKILEGHHHHHH” was “not soluble”; that for “MSLVWLAELPDEILENLYPGEDVLYSVKKKLYTELKPKYLIVTDRRIIYLDQKILGRYDLIDIPYEKLEFVHFKKGKIGAKFIIRNEEGEEIVLTWMEKDEAEKAIEAIRDAINAIAVEPVSIQKRKGILGFELELSKPKEFITRTYPQAVAKAAPKEDPIERIRKLKELYESGVISREEFEEKKRKLLDQIEGHHHHHH” was “soluble”.
To “MSLWQPLVLVLLVLGCCFAAPRQRQSTLVLFPGDLRTNLTDRQLAEEYLYRYGYTRVAEMRGESKSLGPALLLLQKQLSLPETGELDSATLKAMRTPRCGVPDLGRFQTFEGDLKWHHHNITYWIQNYSEDLPRAVIDDAFARAFALWSAVTPLTFTRVYSRDADIVIQFGVAEHGDGYPFDGKDGLLAHAFPPGPGIQGDAHFDDDELWSLGKGVVVPTRFGNADGAACHFPFIFEGRSYSACTTDGRSDGLPWCSTTANYDTDDRFGFCPSERLYTRDGNADGKPCQFPFIFQGQSYSACTTDGRSDGYRWCATTANYDRDKLFGFCPTRADSTVMGGNSAGELCVFPFTFLGKEYSTCTSEGRGDGRLWCATTSNFDSDKKWGFCPDQGYSLFLVAAHEFGHALGLDHSSVPEALMYPMYRFTEGPPLHKDDVNGIRHLYGPRPEPEPRPPTTTTPQPTAPPTVCPTGPPTVHPSERPTAGPTGPPSAGPTGPPTAGPSTATTVPLSPVDDACNVNIFDAIAEIGNQLYLFKDGKYWRFSEGRGSRPQGPFLIADKWPALPRKLDSVFEEPLSKKLFFFSGRQVWVYTGASVLGPRRLDKLGLGADVAQVTGALRSGRGKMLLFSGRRLWRFDVKAQMVDPRSASEVDRMFPGVPLDTHDVFQYREKAYFCQDRFYWRVSSRSELNQVDQVGYVTYDILQCPED” belongs “soluble”.
Consider “MSLYPDDSLTLHTDLYQINMMQVYFDQGIHNKKAVFEVYFRQQPFKNGYAVFAGLERIVNYLEDLRFSDSDIAYLESLGYHGAFLDYLRNFKLELTVRSAQEGDLVFANEPIVQVEGPLAQCQLVETALLNIVNYQTLVATKAARIRSVIEDEPLMEFGTRRAQEMDAAIWGTRAAVIGGANGTSNVRAGKLFDIPVLGTHAHALVQVYGNDYEAFKAYAATHKNCVFLVDTYDTLRIGVPAAIQVARELGDQINFMGVRIDSGDIAYISKKVRQQLDEAGFTEAKIYASNDLDENTILNLKMQKAKIDVWGVGTKLITAYDQPALGAVYKIVAIEDETGQMRNTIKLSNNAEKVSTPGKKQVWRITSREKGKSEGDYITYDGVDISYMTEIKMFHPTYTYIKKTVRNFDAVPLLVDIFKEGILVYNLPSLTDIQDYARKEFDKLWDEYKRVLNPQHYPVDLARDVWQDKMDLIDKMRKEALGEGEEEEGHHHHHH”, for which the “soluble on expression in E. coli” value is on record as “soluble”.
The value for “MSLYVPGKQVTLAHIIASPNKEIYTKLGLPEGTSNALGILTITPSEAAIIAVDIATKSGDIQIGFIDRFSGSVVISGDVSSVEAALQAVIEGLQQILNFSVTCKEGHHHHHH” was “not soluble”; that for “MSLYVVISPTGRTDGNIPARGYAGPSGRLDVIARAYNAILEPNATLAALLMGGPLPPRLLIAPLSCKDIVRSERSFMIEASRALRGRRSCFTVNDEGVEALASLLRRFKPRILLAEKGGDISSHWGEMCSSSPTFIAGSHLDPPHGLIKHLERSLGGFLRVSVGPLSLHTDHVFLLVSALRLPMHATSIEHH” was “not soluble”; that for “MSLYYINLKQERILKFIEKFGVARIEHMKRILNIKDIDNQFKILIRQRKVKLVFNDICVLDGKKELNIKMIKALDLYSYLHLNNGGIPIEWCMPQDFPFTIAFFRNSKVFDVAIINEGEETIYSSAINRGVSERVIVVLSEENQKENIKINKQIKCCTIEDGVLNFEGHHHHHH” was “not soluble”.
To “MSMDISDFYQTFFDEADELLADMEQHLLDLVPESPDAEQLNAIFRAAHSIKGGAGTFGFTILQETTHLMENLLDEARRGEMQLNTDIINLFLETKDIMQEQLDAYKNSEEPDAASFEYICNALRQLALEAKGETTPAVRSHHHHHH” belongs “soluble”; to “MSMEDPFFVVKGEVQKAVNTAQGLFQRWTELLQGPSAATREEIDWTTNELRNNLRSIEWDLEDLDETISIVEANPRKFNLDATELSIRKAFITSTRQIVRDMKDQMSASS”, “soluble”.
To “MSMPKCEICNDDYSSEDGDHSPRNLKCSHTLCEGCIKKMLGNSKIVCPFCREPTDMPGNKMESLHKNFALIQAIQLFAKTTKITEVEEPMLEKCKHHPDYLVETVCVEEDCSESGKYMCRKCVSTLSHLHHTKKSLIAEMEKSRELLQGRINRLNKTIGEIDQDVRKLRMSQIAFREGGNNYQQKANEITTFYSRIREMVNEREKEALVKLKEVAKSILDENDSALPPLLRSHQKLTEYVRKATEAKKRNNAIACITAAEDLLNKTKDCCDEEYYTIESQDINVCIKPIDIPVATITRK” belongs “not soluble”; to “MSMVETAPSKIQVRDLNFYYGKFHALKNINLDIAKNQVTAFIGPSGCGKSTLLRTFNKMYSLYPEQRAEGEILLDGDNILTNTQDIALLRAKVGMVFQKPTPFPMSIYDNIAFGVRLFEKLSRADMDERVQWALTKAALWNETKDKLHQSGYSLSGGQQQRLCIARGIAIRPEVLLLDEPCSALDPISTGRIEELITELKQDYTVVIVTHNMQQAARCSDHTAFMYLGELIEFSNTDDLFTKPAKKQTEDYITGRYG”, “not soluble”; to “MSNEQLADLTQPQRDRLAFVELRVRFIGEIRRQDLVTRFGIQSAAASRDLALYKELAPGNIDYDSKGKSYVLGPDFRPVFDFPPERVLSWLTQGFGDGEPMRLKAWVASESPSRLTHPDLDVLASVTRAIHQECPLGIEYHSISSGRTEREIVPFALIDNGLRWHVRAFDRKSQEFRDFVITRIKRPVLIRDAEVQSHERSDQDIQWTRIVELEMVPHPDQPRPEITEMDYGMVRGSLRMKLRAATAGYILRQWSVDCSPDHSLRGYEFRLWLKDHLALYGVKNAVLAPGYRSPDQNKGEQ”, “soluble”.
Regarding “MSNNETMMFNVEKEKVNEARELLVSVYKALKEKGYNPINQIVGYILSGDPTYITNHLDARSSIRKVERDELLEEILRCYLEECIGKEGSV”, the “soluble on expression in E. coli” value is reported as “soluble”.
For “MSNNKQAWTGQLDLSVFNNGKKSVARDVFFEKALKVMRPVYLNQSDIPTFYIVNVGGGYLDGDRYTMNFNIDSDAKVILTSQGATKIYKTLNDHVEQYQTFNIKNNGYAEYVGDPIIAFENAKFYQHNVFNLESTASLFYTDILTPGYSKSDKRFSYTYMHLLNEIYVDDALVTFDNMLLDPQKQNVDGLGYMEDYTHLGSCYFIHPSVNQKFIEQVYEEIKHFQHKYDCRFGITHLPTHGFSLRILSNKTQVIESIITAVQCYVVKQIFDRDVDFLRKYLEHHHHHH”, the “soluble on expression in E. coli” value was “not soluble”.
The value for “MSNPTKISILGRESIIADFGLWRNYVAKDLISDCSSTTYVLVTDTNIGSIYTPSFEEAFRKRAAEITPSPRLLIYNRPPGEVSKSRQTKADIEDWMLSQNPPCGRDTVVIALGGGVIGDLTGFVASTYMRGVRYVQVPTTLLAMVDSSIGGKTAIDTPLGKNLIGAIWQPTKIYIDLEFLETLPVREFINGMAEVIKTAAISSEEEFTALEENAETILKAVRREVTPGEHRFEGTEEILKARILASARHKAYVVSADEREGGLRNLLNWGHSIGHAIEAILTPQILHGECVAIGMVKEAELARHLGILKGVAVSRIVKCLAAYGLPTSLKDARIRKLTAGKHCSVDQLMFNMALDKKNDGPKKKIVLLSAIGTPYETRASVVANEDIRVVLAP” was “soluble”.
The value for “MSNRVPTNILTGFLGVGKTTTILNLLKNKPENENWAVLVNEFGEIGIDGALMTDQGALIKEVPGGCMCCTAGVPMSVGITALLRQKPDRLLIEPTGLGHPKQVIATLTSEQYLPYVDLKATIALVDPRNLSDEKYTSNQNFVDQLDSADVVIGSKVDLCSSHDIDVFNDWVTDQTPAKVFSKLIHNGELPIEVLDIERVHGSASSHIETHHHEHAHQEPQFQLPPGEAFIRKENKGQGYFSCGWLFGAEYKFDFDKLFSMLSDLTAERVKAVVNTNQGCYAFNVANRVVSVNEISLEGFESRLEVIDSQLLPWDELEQILLQLAGVEGLEHHHHHH” was “soluble”; that for “MSNSLEERLRANSSAFDGLLALIPAKYYYDEKSQEQWKAKKKTKEQSKNDKLKKLDPEQRDDETSSTLEVMKKKEKDAKPVVLPGEKFKHMKMQKQKEATSKVEGDSDLNVEVNDPMIIAPDEDEEEEEDIKVIFDDEGNEIPLESKKDTTEPDRSVEKKSITEEEKLQRKKNLEALRSKLQAKISDMKSKRKAPGSREAILAQRKRKEELKKRKRLESEQEQDQDEIASDSDMEDIDSDLENNSKKRFKKGKKDSEINADGVMFQNIIFDDGARATSDLQRLRKAGRTKGPAKNDVKSHLKLLEAKKNKMEAKDELEQIKQKEKEKWQKAMLQAEGIKIRDDEKLLRKAIKRKEAQKRKSAIEWSERKRVVEDTISERQKRREENLRIRKDNKGKKRNKQEKMKRKYVGSAVPKKRAGFEGRLKTGKKKGGPK” was “not soluble”.

The values are drawn from the DeepSol protein solubility set.
